Biological target: T1, GST-tagged PAD1 (human, UniProt Q9ULC6 1-663)
T1 construct: peptidylarginine deiminase 1 (PAD1), recombinant human; also called GST-PAD1; recombinant human PAD1; source: recombinant
T1 sequence (looked up): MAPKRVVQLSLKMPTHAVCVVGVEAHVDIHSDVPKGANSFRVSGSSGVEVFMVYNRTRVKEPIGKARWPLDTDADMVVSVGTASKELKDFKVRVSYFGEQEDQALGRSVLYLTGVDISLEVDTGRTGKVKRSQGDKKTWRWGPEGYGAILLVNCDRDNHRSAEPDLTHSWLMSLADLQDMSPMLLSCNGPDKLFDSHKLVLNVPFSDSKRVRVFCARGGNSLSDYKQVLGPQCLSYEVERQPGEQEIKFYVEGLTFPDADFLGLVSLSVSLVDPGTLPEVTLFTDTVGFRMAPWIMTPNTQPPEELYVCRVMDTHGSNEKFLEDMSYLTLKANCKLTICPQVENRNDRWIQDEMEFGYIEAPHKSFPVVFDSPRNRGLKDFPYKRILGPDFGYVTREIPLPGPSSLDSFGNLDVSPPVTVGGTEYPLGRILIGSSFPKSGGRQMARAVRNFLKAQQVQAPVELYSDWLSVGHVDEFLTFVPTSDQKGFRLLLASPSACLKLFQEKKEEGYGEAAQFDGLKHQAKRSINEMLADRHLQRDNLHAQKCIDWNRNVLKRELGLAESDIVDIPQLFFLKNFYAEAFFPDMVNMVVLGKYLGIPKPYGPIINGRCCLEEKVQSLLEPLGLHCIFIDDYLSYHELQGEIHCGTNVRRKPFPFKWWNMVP
Assay: pull-down; GST pull-down: purified His-tagged AKT2 (full length or truncated) incubated with GST-tagged PAD1 or GST alone
Conditions: both partners purified

B1: His-tagged full-length AKT2 (enzyme, UniProt P31751 1-481, looked up)
chain: MNEVSVIKEGWLHKRGEYIKTWRPRYFLLKSDGSFIGYKERPEAPDQTLPPLNNFSVAECQLMKTERPRPNTFVIRCLQWTTVIERTFHVDSPDEREEWMRAIQMVANSLKQRAPGEDPMDYKCGSPSDSSTTEEMEVAVSKARAKVTMNDFDYLKLLGKGTFGKVILVREKATGRYYAMKILRKEVIIAKDEVAHTVTESRVLQNTRHPFLTALKYAFQTHDRLCFVMEYANGGELFFHLSRERVFTEERARFYGAEIVSALEYLHSRDVVYRDIKLENLMLDKDGHIKITDFGLCKEGISDGATMKTFCGTPEYLAPEVLEDNDYGRAVDWWGLGVVMYEMMCGRLPFYNQDHERLFELILMEEIRFPRTLSPEAKSLLAGLLKKDPKQRLGGGPSDAKEVMEHRFFLSINWQDVVQKKLLPPFKPQVTSEVDTRYFDDEFTAQSITITPPDRYDSLGLLELDQRTHFPQFSYSASIRE
notes: AKT2, full length; whether 'human' also covers AKT2 is not clear; also called His-AKT2 (full length); source: purified
- binding result: binds

B2: His-AKT2 (kinase domain) (domain or fragment, UniProt P31751 152-481, looked up)
chain: FDYLKLLGKGTFGKVILVREKATGRYYAMKILRKEVIIAKDEVAHTVTESRVLQNTRHPFLTALKYAFQTHDRLCFVMEYANGGELFFHLSRERVFTEERARFYGAEIVSALEYLHSRDVVYRDIKLENLMLDKDGHIKITDFGLCKEGISDGATMKTFCGTPEYLAPEVLEDNDYGRAVDWWGLGVVMYEMMCGRLPFYNQDHERLFELILMEEIRFPRTLSPEAKSLLAGLLKKDPKQRLGGGPSDAKEVMEHRFFLSINWQDVVQKKLLPPFKPQVTSEVDTRYFDDEFTAQSITITPPDRYDSLGLLELDQRTHFPQFSYSASIRE
notes: AKT2 residues 152-481, the truncated variant that the text calls the kinase domain; also called His-tagged AKT2 (152–481 aa); source: purified
- binding result: binds

— paper PMC12533369, “Citrullination of AKT2 Catalyzed by PAD1 Facilitates the Maintenance of Stemness Characteristics of Ovarian Cancer Stem‐Like Cells in Ovarian Cancer” (Advanced Science, 2025)
